Measurements taken from the Immune Epitope Database (IEDB).

Legend:
HLA-A*02:02 = assay: IEDB peptide-MHC binding, purified MHC/competitive/radioactivity; filed as Kd, often an IC50 or EC50 that approximates it; ≥ and ≤ were set here for values at or beyond the usual limits of such assays
HLA-A*02:06 = assay: as above
HLA-A*02:03 = assay: as above
HLA-A*02:01 [1] = assay: IEDB peptide-MHC binding, purified MHC/direct/fluorescence; filed as Kd, often an IC50 or EC50 that approximates it; ≥ and ≤ were set here for values at or beyond the usual limits of such assays
HLA-A*69:01 = assay: as above
HLA-A*01:01 = assay: as above
HLA-A*30:01 = assay: IEDB peptide-MHC binding, purified MHC/competitive/radioactivity; filed as Kd, often an IC50 or EC50 that approximates it; ≥ and ≤ were set here for values at or beyond the usual limits of such assays
HLA-A*02:01 [2] = assay: IEDB peptide-MHC binding, purified MHC/competitive/fluorescence; filed as Kd, often an IC50 or EC50 that approximates it; ≥ and ≤ were set here for values at or beyond the usual limits of such assays
HLA-A*11:01 [3] = assay: IEDB peptide-MHC binding, purified MHC/competitive/radioactivity; filed as Kd, often an IC50 or EC50 that approximates it; ≥ and ≤ were set here for values at or beyond the usual limits of such assays; conditions: source organism: Vaccinia virus WR
HLA-A*33:01 = assay: as above; conditions: source organism: Vaccinia virus WR
HLA-A*31:01 = assay: as above; conditions: source organism: Vaccinia virus WR
HLA-A*03:01 [4] = assay: as above
HLA-A*68:01 = assay: as above; conditions: source organism: Vaccinia virus WR
HLA-A*24:02 = assay: as above
HLA-B*40:01 = assay: IEDB peptide-MHC binding, purified MHC/direct/fluorescence; filed as Kd, often an IC50 or EC50 that approximates it; ≥ and ≤ were set here for values at or beyond the usual limits of such assays
HLA-A*02:01 [5] = assay: IEDB peptide-MHC binding, purified MHC/competitive/fluorescence; ≥ and ≤ were set here for values at or beyond the usual limits of such assays
HLA-B*15:01 = assay: IEDB peptide-MHC binding, purified MHC/direct/fluorescence; filed as Kd, often an IC50 or EC50 that approximates it; ≥ and ≤ were set here for values at or beyond the usual limits of such assays
HLA-A*30:02 = assay: IEDB peptide-MHC binding, purified MHC/competitive/radioactivity; filed as Kd, often an IC50 or EC50 that approximates it; ≥ and ≤ were set here for values at or beyond the usual limits of such assays; conditions: source organism: Dengue virus 4 Philippines/H241/1956
HLA-A*11:01 [6] = assay: IEDB peptide-MHC binding, purified MHC/direct/fluorescence; filed as Kd, often an IC50 or EC50 that approximates it; ≥ and ≤ were set here for values at or beyond the usual limits of such assays; conditions: source organism: SARS-CoV1
HLA-B*07:02 = assay: as above; conditions: source organism: SARS-CoV1
HLA-A*03:01 [7] = assay: as above; conditions: source organism: SARS-CoV1
[8] = source organism: Vaccinia virus WR
[9] = source organism: Entamoeba histolytica HM-1:IMSS
[10] = source organism: Dengue virus 1 Brazil/97-11/1997
[11] = source organism: SARS coronavirus Tor2
[12] = source organism: Mammarenavirus whitewaterense
[13] = source organism: Mammarenavirus guanaritoense
[14] = source organism: Encephalitozoon cuniculi

Work on NIFMTLVPV yielded a Kd (HLA-A*02:02; [8]) of 86.2 nM, a Kd (HLA-A*02:06; [8]) of 227 nM and a Kd (HLA-A*02:03; [8]) of 6.38 nM.
NVGRILGYV was tested, and the Kd (HLA-A*02:01 [1]; [9]) was 146 nM and the Kd (HLA-A*69:01; [9]) was 3.7 nM.
Sequence NVMAADPPK has a Kd (HLA-A*01:01; source organism: Yersinia pestis) of at least 20000 nM.
QLVFNSISA was tested, and the Kd (HLA-A*02:02; [8]) was 4800 nM, the Kd (HLA-A*02:06; [8]) was 3780 nM and the Kd (HLA-A*02:03; [8]) was 1560 nM.
In the case of QMDGAILVV, the Kd (HLA-A*69:01; source organism: Brucella abortus 2308) is reported as 3440 nM.
Sequence RALKAYFTA has a Kd (HLA-A*02:02; [8]) of 2350 nM, a Kd (HLA-A*02:06; [8]) of 13.7 nM and a Kd (HLA-A*30:01; [8]) of 66.1 nM. For the same sequence, the Kd (HLA-A*02:03; [8]) was 204 nM.
In the case of RARNRVSTG, the Kd (HLA-A*30:01; [10]) is reported as 180 nM.
With RIYCSLFKNV the Kd (HLA-A*02:02; [8]) was 913 nM, the Kd (HLA-A*02:06; [8]) was 7.1 nM and the Kd (HLA-A*02:03; [8]) was 29.6 nM.
RLKRMAISG showed a Kd (HLA-A*30:01; [10]) of 138 nM.
For RMPEAAPPV, the Kd (HLA-A*02:01 [2]; source organism: Tupaia belangeri) was 0.5 nM.
RTKLMSNIK showed a Kd (HLA-A*11:01 [3]) of 29.4 nM, a Kd (HLA-A*33:01) of at least 56800 nM and a Kd (HLA-A*30:01; [8]) of 0.38 nM. The Kd (HLA-A*31:01) was 4.49 nM, the Kd (HLA-A*03:01 [4]; [8]) was 23.6 nM and the Kd (HLA-A*68:01) was 778 nM.
RTRPRWIPA was tested, and the Kd (HLA-A*01:01; source organism: Mycobacterium tuberculosis) was at least 20000 nM.
RWFVERNMVT was tested, and the Kd (HLA-A*24:02; source organism: Dengue virus 2 Jamaica/1409/1983) was 855 nM.
SEILPFTVL showed a Kd (HLA-B*40:01; source organism: Mycobacterium tuberculosis variant bovis) of 14.7 nM.
Sequence SLEATFIDV has a Kd (HLA-A*02:02; [8]) of 34.9 nM, a Kd (HLA-A*02:06; [8]) of 10.3 nM and a Kd (HLA-A*02:03; [8]) of 80.4 nM.
For SLLRNDVPMA, the Kd (HLA-A*30:01; source organism: Dengue virus 3 Martinique/1243/1999) was 2480 nM.
For SLVKPTVYV, the Kd (HLA-A*02:02; [11]) was 108 nM, the Kd (HLA-A*02:06; [11]) was 473 nM and the Kd (HLA-A*02:03; [11]) was 37.2 nM.
In the case of SLYNLVKSSV, the Kd (HLA-A*02:01 [2]; source organism: Variola virus) is reported as 3.2 nM.
Sequence SMYVIPDEL has a Kd (HLA-A*02:02; [8]) of 5.02 nM, a Kd (HLA-A*02:06; [8]) of 2820 nM and a Kd (HLA-A*02:03; [8]) of 13.4 nM.
With SQDTTIPDV the IC50 (HLA-A*02:01 [5]; source organism: Zaire ebolavirus) was 5340 nM.
SQKTTWLPV gave a Kd (HLA-A*02:06; [10]) of 175 nM and a Kd (HLA-A*30:01; [10]) of 15.1 nM.
With STQQNKLVI the Kd (HLA-A*02:02; [8]) was at least 53000 nM, the Kd (HLA-A*02:06; [8]) was at least 77100 nM and the Kd (HLA-A*02:03; [8]) was 14400 nM.
SWKLEKASF was tested, and the Kd (HLA-A*24:02; source organism: Dengue virus 3 Singapore/8120/1995) was 153 nM.
For TIILNKIVQL, the Kd (HLA-A*02:02; [8]) was 1760 nM, the Kd (HLA-A*02:06; [8]) was 30.4 nM and the Kd (HLA-A*02:03; [8]) was at least 49300 nM.
In the case of TLIDFYLCFL, the Kd (HLA-A*02:02; [11]) is reported as 0.0405 nM, the Kd (HLA-A*02:06; [11]) is reported as 3.01 nM and the Kd (HLA-A*02:03; [11]) is reported as 3.57 nM.
TLIQYRQQL was tested, and the Kd (HLA-A*02:02; [8]) was 128 nM, the Kd (HLA-A*02:06; [8]) was 1880 nM and the Kd (HLA-A*02:03; [8]) was 410 nM.
TLLMNELGV was tested, and the Kd (HLA-A*02:01 [2]; source organism: Influenza A virus (A/nt/60/1968(H3N2))) was 0.7 nM.
TLNASQYAN gave an IC50 (HLA-A*02:01 [5]; source organism: Vaccinia virus Copenhagen) of at least 143000 nM.
With TQFESLKIY the Kd (HLA-B*15:01; source organism: Influenza A virus (A/Chicken/Nanchang/2-220/2001(H3N6))) was 211 nM.
In the case of TTRHRKPTY, the Kd (HLA-A*30:01; source organism: Dengue virus 4 Philippines/H241/1956) is reported as 1180 nM and the Kd (HLA-A*30:02) is reported as 658 nM.
TVEFDRDKVV was tested, and the Kd (HLA-A*02:02; [8]) was 16200 nM, the Kd (HLA-A*02:06; [8]) was at least 30800 nM and the Kd (HLA-A*02:03; [8]) was 1600 nM.
Work on VAEHRFENM yielded a Kd (HLA-A*02:02; [8]) of 7130 nM, a Kd (HLA-A*02:06; [8]) of at least 47900 nM and a Kd (HLA-A*02:03; [8]) of 7160 nM.
In the case of VCFWSTLFYV, the Kd (HLA-A*02:02; [12]) is reported as 348 nM, the Kd (HLA-A*02:06; [12]) is reported as 1130 nM and the Kd (HLA-A*02:03; [12]) is reported as 7010 nM.
With VMRSRWSRK the Kd (HLA-A*30:01; [10]) was 10.8 nM and the Kd (HLA-A*03:01 [4]; [10]) was 4.86 nM.
For VQTVRTQVY, the Kd (HLA-A*11:01 [6]) was at least 44700 nM, the Kd (HLA-A*01:01; source organism: SARS-CoV1) was at least 24700 nM and the Kd (HLA-B*15:01; source organism: SARS-CoV1) was 144 nM. The Kd (HLA-B*07:02) was 16700 nM, the Kd (HLA-A*03:01 [7]) was 6620 nM and the Kd (HLA-B*40:01; source organism: SARS-CoV1) was at least 168000 nM.
YCNYTRFWYI gave a Kd (HLA-A*02:02; [13]) of 1050 nM, a Kd (HLA-A*02:06; [13]) of 81.4 nM and a Kd (HLA-A*02:03; [13]) of 4340 nM.
YLWFKRHVY gave a Kd (HLA-A*02:01 [1]; [14]) of 4010 nM and a Kd (HLA-A*69:01; [14]) of 3240 nM.
YVILKDPRI showed a Kd (HLA-A*02:02; [8]) of 1550 nM, a Kd (HLA-A*02:06; [8]) of 11.7 nM and a Kd (HLA-A*02:03; [8]) of 203 nM.
